Assays:
Thrombin [1] = molecular target: T1, Thrombin (UniProt P00734;P00734 P00734:328-363,P00734:364-622); experiment: fluorescence intensity titration; 50 mM Tris pH 7.5, 100 mM NaCl, 5 mM KCl, 1 mM MgCl2
Thrombin [2] = molecular target: T1, Thrombin; experiment: EMSA; high affinity; among most efficient competitors (FIG. 16)
Thrombin [3] = molecular target: T1, Thrombin; experiment: competition; does not compete with THR2 (binds the other exosite); poor competitor of beacon complex compared with bivalent constructs
Thrombin [4] = molecular target: T1, Thrombin; experiment: competition; affinity relative to THR2
[5] = molecular target: Single-stranded DNA binding protein (SSB) (Escherichia coli, UniProt P0AGE0 P0AGE0:2-178); experiment: FP; nanomolar concentrations, similar range as thrombin; conditions: tags: Sigma; chain copies: 4; label: 5' fluorescein
Thrombin [6] = molecular target: T1, Thrombin; experiment: FP; nanomolar range only

Sequence of Single-stranded DNA binding protein (SSB) (P0AGE0 2-178, one chain of several): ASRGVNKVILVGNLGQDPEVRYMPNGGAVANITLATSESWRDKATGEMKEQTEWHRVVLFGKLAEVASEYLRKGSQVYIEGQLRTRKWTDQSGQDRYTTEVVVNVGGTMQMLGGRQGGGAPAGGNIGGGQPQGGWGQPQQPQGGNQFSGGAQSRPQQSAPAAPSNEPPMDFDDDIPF

GGTTGGTGTGGTTGG (ssDNA) [THR2 (G15D)]
Kd (Thrombin [1]): 6.3 nM

B1: THR18/THR19 bivalent (structured_DNA)
DNA 1: GGTTGGTGTGGTTGGTTTTTTTTTTTTTTTTTTTTTTTTTTTCTGTCGTTAGTGAAGGTT
DNA 2: AACCTTCACTAACGACAGTTTTTTTTTTTTTTTTTTTTTTTTTTTAGTCCGTGGTAGGGCAGGTTGGGGTGACT
binding result (Thrombin [2]): binds

AGTCCGTGGTAGGGCAGGTTGGGGTGACT (ssDNA) [THR3 (60-18 [29])]
binding result (Thrombin [3]): binds

GGTTGGTGTGGTTGG (ssDNA) [THR4 (G15D)]
binding signal (Thrombin [4]): 1.7 fold

B2: THR16/THR17 bivalent (structured_DNA)
DNA 1: GGTTGGTGTGGTTGGTTTTTTTTTTTTTTTTTCTGTCGTTAGTGAAGGTT
DNA 2: AACCTTCACTAACGACAGTTTTTTTTTTTTTTTTTAGTCCGTGGTAGGGCAGGTTGGGGTGACT
binding result (Thrombin [2]): binds

AGTCCGTGGTAGGGCAGGTTGGGGTGACT (ssDNA) [THR1 (60-18 [29])]
binding result [5]: binds | binding result (Thrombin [6]): binds

Source: patent publication US20140248710, “THREE-COMPONENT BIOSENSORS FOR DETECTING MACROMOLECULES AND OTHER ANALYTES” (Mediomics LLC, published 2014)
